The values below come from US20110250165A1.

The labels stand for the following.
B1: 20-Fc (Fc fusion, part only; not given: linker and human IgG1 hinge-Fc, not shown: another chain or arm of the molecule; a dimerising Fc or GST; small tags and cut ends)
VH: EVQLVQSGGGLVQPGGSLRLSCAASGFTFSSYAMSWVRQAPGKGLEWVANIKQDGSEKYYVDSVKGRFTISRDNAKNSLYLQMNSLRAEDTAVYYCARDQVSGITIFGGKWRSPDVWGQGTTVTVSS
VL: SSELTQDPAVSVALGQTVRITCQGDSLRSYYASWYQQKPGQAPVLVIYGKNNRPSGIPDRFSGSKSHNTAYLTITGAQAEDEADYFCNSRSGSQRVFGGGTKLTVL
B2: 33-Fc (Fc fusion, part only; not given: linker and human IgG1 hinge-Fc, not shown: another chain or arm of the molecule; a dimerising Fc or GST; small tags and cut ends)
VH: QVTLKESGGGVVQPGRSLRLSCAASGFTFTNYGLHWVRQAPGKGLEWVAVISHDGTKKYYADSVKGRFTISRDSSENTLYLQMNSLRPEDSALYYCARDGGYCSGGRCYSYGMDVWGQGTTVTVSS
VL: QSVLTQPPSASGTPGQRVTISCSGSRSNIGSNTVNWYQQLPGTAPKLLIYTNNQRPSGVPDRFSGSKSGTSASLAITGLQAEDEADYYCLSFDSSLTSYVFGTGTKVTVL
B3: 2N-Fc (Fc fusion, part only; not given: linker and human IgG1 hinge-Fc, not shown: another chain or arm of the molecule; a dimerising Fc or GST; small tags and cut ends)
VH: EVQLVESGGGVVQPGRSLRLSCAASGFTFSSYGMHWVRQAPGKGLEWVAVISYDGSNKYYADSVKGRFTISRDNSKNTLYLQVSSLRAEDTAVYYCVRDLVAAAGTAFDIWGQGTTVTVSS
VL: QPVLTQPRSVSGSPGQSVTISCTGTISDVGGHNFVSWYQQNPGKAPKLIIFEVTKRPAGVPDRFSGSKSGNTASLTVSGLQAEDEGEYYCSSYGGSNDVIFGGGTKLSVL
B4: 6R-Fc (Fc fusion, part only; not given: VH-VL linker, hinge and IgG1 Fc, not shown: another chain or arm of the molecule; a dimerising Fc or GST; small tags and cut ends)
VH: QVQLQQSGPGLVKPSQTLSLTCAVSGDSVSSNFVAWNWIRQSPSRGLEWLGRTYYRSRWYNDYAVSVQSRIRVTPDTSKNQFSLHLDSVTPEDTAVYYCARGQHSGFDFWGQGTLVTVSS
VL: QSVLTQPPSVSKGLRQTATLTCTGNSNNVGNQGAAWLQQHQGHPPKLLSYRNNNRPSGISERFSASRSGNTASLTITGLQPEDEADYYCSAWDNRLKTYVFGTGGKVTVL
B5: 33-IgG1 (antibody, V domains shown)
VH: B2 VH
VL: QSVLTQPPSASGTPGQRVTISCSGSRSNIGSNTVNWYQQLPGTAPKLLIYTNNQRPSGVPDRFSGSKSGTSASLAITGLQAEDEADYYCLSFDSSLTSYVFGTGTKVTVLG

Chain of rhesus macaque monkey CXCR4 (rhesus macaque) (P79394 whole entry): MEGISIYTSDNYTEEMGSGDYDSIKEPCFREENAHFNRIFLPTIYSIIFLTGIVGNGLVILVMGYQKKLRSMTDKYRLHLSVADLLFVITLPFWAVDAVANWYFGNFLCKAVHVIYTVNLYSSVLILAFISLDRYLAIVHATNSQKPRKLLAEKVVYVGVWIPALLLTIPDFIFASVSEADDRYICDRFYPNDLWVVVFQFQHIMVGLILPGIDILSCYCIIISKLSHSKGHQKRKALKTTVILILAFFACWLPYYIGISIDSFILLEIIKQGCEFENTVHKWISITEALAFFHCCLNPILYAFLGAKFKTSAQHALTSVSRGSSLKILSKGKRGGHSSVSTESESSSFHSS

The first assay has as its target rhesus macaque monkey CXCR4 (rhesus macaque) (UniProt P79394). As to the kind of experiment: flow cytometry, scFv-Fc on transfected 293T cells, FITC anti-human IgG.
Turning to B1, the reactivity (MFI of chimeric receptor/MFI of wild type CXCR4 x 100%) is 77.5%.
The same measure, in the same setting: for B2 the value was 103%; for B3, 98.3%; for B4, 41.9%.

The target in another assay is Δ-X4. The assay is described as above.
For B1, the reactivity (MFI of chimeric receptor/MFI of wild type CXCR4 x 100%) was 9.6%.
In the case of B2, the reactivity (MFI of chimeric receptor/MFI of wild type CXCR4 x 100%) stood at 3.1%.
The same measure, in the same setting: for B3 the value was -1.6%.
On the same count and under the same terms, for B4 the value was 16.6%.

The target of the next assay is 2242 CXCR2/CXCR4 chimera. Described as above.
For the molecule B1, the reactivity (MFI of chimeric receptor/MFI of wild type CXCR4 x 100%) worked out at 11.6%.
Same read-out and setting: for B2 the value was 0.3%.
In the case of B3, the reactivity (MFI of chimeric receptor/MFI of wild type CXCR4 x 100%) was found to be 1.2%.
The same measure, in the same setting: in the case of B4 it was 1%.

For a further assay, the target named is mouse CXCR4 (mouse) (UniProt P70658). The description is as above.
Chain of mouse CXCR4 (mouse) (P70658 whole entry): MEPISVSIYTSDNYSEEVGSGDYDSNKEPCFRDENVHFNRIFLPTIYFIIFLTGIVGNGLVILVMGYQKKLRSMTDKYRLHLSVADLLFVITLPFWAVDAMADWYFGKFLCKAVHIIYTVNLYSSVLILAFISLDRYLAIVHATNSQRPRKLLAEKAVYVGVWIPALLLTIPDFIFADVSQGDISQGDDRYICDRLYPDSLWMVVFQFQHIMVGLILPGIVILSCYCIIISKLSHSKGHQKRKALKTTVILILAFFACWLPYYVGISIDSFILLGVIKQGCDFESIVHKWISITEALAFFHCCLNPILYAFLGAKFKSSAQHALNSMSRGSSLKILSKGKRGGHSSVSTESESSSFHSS
With B2, the reactivity (MFI of chimeric receptor/MFI of wild type CXCR4 x 100%) turned out to be 2.1%.
Same read-out and setting: in the case of B3 it was 3.6%.

The target in the next assay is 2442 CXCR2/CXCR4 chimera. The assay is described as above.
Regarding B1, the reactivity (MFI of chimeric receptor/MFI of wild type CXCR4 x 100%) came out at 7.6%.
The same measure, in the same setting: for B2 the value was 0.7%; for B3, 4.5%; for B4, 3.7%.

A further assay concerns the target 2444b CXCR2/CXCR4 chimera (human) (UniProt P25025). Described as above.
For the molecule B1, the reactivity (MFI of chimeric receptor/MFI of wild type CXCR4 x 100%) came out at 12.9%.
On the same count and under the same terms, in the case of B2 it was 0.7%.
Still for that read-out and setting: in the case of B3 it was 8.3%; in that of B4, 4.7%.

In a further assay the target is CXCR2 (UniProt P25025). The description is as above.
Chain of CXCR2 (P25025 whole entry): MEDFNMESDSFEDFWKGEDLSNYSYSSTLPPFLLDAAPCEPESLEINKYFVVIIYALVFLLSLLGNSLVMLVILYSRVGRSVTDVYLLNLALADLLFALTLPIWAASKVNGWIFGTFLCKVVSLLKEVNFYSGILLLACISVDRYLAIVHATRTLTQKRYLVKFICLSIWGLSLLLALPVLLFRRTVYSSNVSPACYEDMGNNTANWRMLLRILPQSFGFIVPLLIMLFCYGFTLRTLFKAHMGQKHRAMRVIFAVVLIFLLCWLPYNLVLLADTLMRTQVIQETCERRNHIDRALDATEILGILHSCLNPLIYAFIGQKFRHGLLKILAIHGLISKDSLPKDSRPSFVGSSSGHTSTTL
For B1, the reactivity (MFI of chimeric receptor/MFI of wild type CXCR4 x 100%) was 4.1%.
On the same count and under the same terms, in the case of B2 it was -0.52%.
For B3, the reactivity (MFI of chimeric receptor/MFI of wild type CXCR4 x 100%) is 4.7%.

Another assay addresses 4442 CXCR2/CXCR4 chimera. The assay is described as above.
As for B1, the reactivity (MFI of chimeric receptor/MFI of wild type CXCR4 x 100%) is 27.9%.
Still for that read-out and setting: for B2 the value was 15.5%; for B3, 61%.
The same measure, in the same setting: for B4 the value was 1.4%.

For the next assay, the target named is human CXCR4 (wild type) (human) (UniProt P61073). The description is as above.
Chain of human CXCR4 (wild type) (human) (P61073 whole entry): as the sequence (P79394 whole entry) above, with I24M, H35N, R38K, K146R, S176N, D214V counted along it
Consider B1, for which the reactivity (MFI of chimeric receptor/MFI of wild type CXCR4 x 100%) was found to be 100%.
On to B2, for which the reactivity (MFI of chimeric receptor/MFI of wild type CXCR4 x 100%) amounted to 100%.
Same read-out and setting: in the case of B3 it was 100%.
On to B4, for which the reactivity (MFI of chimeric receptor/MFI of wild type CXCR4 x 100%) was found to be 100%.

The next assay addresses rhesus macaque monkey CXCR4 (rhesus macaque) (UniProt P79394). As to the kind of experiment: flow cytometry, scFv-Fc on transfected 293T cells.
As for B4, the decrease of binding compared to human CXCR4 turned out to be 60%.

Another assay addresses ΔN31-CXCR4 (human) (UniProt P61073). In words: FACS on 293T cells expressing CXCR4 variants.
Take B5: the binding (+%) came out at 9%.
Same read-out and setting: in the case of B3 it was -7%; in that of B4, 12.8%.

The target of a further assay is ΔN25-CXCR4 (human) (UniProt P61073). As to the kind of experiment: FACS on 293T cells expressing CXCR4 variants.
Turning to B5, the binding (+%) is 13%.
For the molecule B3, the binding (+%) was -6.3%.
Same read-out and setting: for B4 the value was 60%.

The next assay has as its target 2442 CXCR2/CXCR4 chimera. In words: FACS on 293T cells expressing CXCR4 variants.
Consider B3, for which the binding (+%) was -1.2%.
On the same count and under the same terms, in the case of B4 it was -3.4%.

For another assay, the target named is 2444b CXCR2/CXCR4 chimera (human) (UniProt P25025). In words: FACS on 293T cells expressing CXCR4 variants.
Chain of 2444b CXCR2/CXCR4 chimera (human) (P25025 other isoform, or with tags, fused parts or gaps mutant limits assumed): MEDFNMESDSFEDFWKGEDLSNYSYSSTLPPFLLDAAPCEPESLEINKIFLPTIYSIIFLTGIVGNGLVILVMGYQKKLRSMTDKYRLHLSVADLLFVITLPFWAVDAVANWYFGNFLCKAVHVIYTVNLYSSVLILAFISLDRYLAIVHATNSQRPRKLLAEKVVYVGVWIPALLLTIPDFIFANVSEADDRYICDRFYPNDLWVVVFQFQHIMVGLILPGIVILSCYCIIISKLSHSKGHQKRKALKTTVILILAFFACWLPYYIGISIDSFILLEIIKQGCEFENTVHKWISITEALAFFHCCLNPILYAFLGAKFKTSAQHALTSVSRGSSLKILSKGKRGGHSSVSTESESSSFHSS
In the case of B3, the binding (+%) is -6.2%.
As to B4, the binding (+%) was 2.2%.

A further assay has as its target 4442 CXCR2/CXCR4 chimera. As to the kind of experiment: FACS on 293T cells expressing CXCR4 variants.
For the molecule B3, the binding (+%) was 89.1%.
Still for that read-out and setting: for B4 the value was -0.4%.

For a further assay, the target named is human CXCR4 (wild type) (human) (UniProt P61073). In words: FACS on 293T cells expressing CXCR4 variants.
Regarding B3, the binding (+%) was found to be 100%.
The same measure, in the same setting: in the case of B4 it was 100%.
